Legend:
[1] = biological target: T1, HPV16E6 (pEGFP-C1-HPV16E6质粒转染293T细胞所提蛋白) (HPV16, UniProt P03126 1-158); assay: western blot, 293T lysate, recombinant antibody
T1 construct: not shown: EGFP tag encoded by the pEGFP-C1 vector (N-terminal to the insert)

[2] = biological target: T2, HPV58E6 (pEGFP-C1-HPV58E6质粒转染293T细胞所提蛋白) (HPV58, UniProt P26555 1-149); assay: western blot, 293T lysate, recombinant antibody 1:100
T2 construct: Expressed from pEGFP-C1 in 293T cells, so an EGFP fusion (band at 37-55 KD); assayed as denatured cell lysate in western blot; not shown: EGFP tag encoded by the pEGFP-C1 vector (N-terminal to the insert)
T2 sequence (looked up): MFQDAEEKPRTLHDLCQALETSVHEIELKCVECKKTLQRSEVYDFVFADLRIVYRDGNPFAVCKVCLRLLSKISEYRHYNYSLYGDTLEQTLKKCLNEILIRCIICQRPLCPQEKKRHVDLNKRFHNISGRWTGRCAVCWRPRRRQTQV

T1 sequence (P03126 whole entry): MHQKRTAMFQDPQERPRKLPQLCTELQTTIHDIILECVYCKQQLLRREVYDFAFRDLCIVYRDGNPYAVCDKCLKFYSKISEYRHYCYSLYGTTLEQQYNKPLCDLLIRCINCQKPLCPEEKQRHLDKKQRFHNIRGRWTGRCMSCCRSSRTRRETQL

B1: HPV58E6特异性兔单克隆抗体 (ZJM1b-9 H2/L1 重组抗体) (antibody, V domains shown)
VH: QSVEESGGRLVTPGTPLTLTCTVSGFSLSSKTISWVRQAPGKGLEWIGAIDSNGMKAYARWAKGRFTISKSSTTVYLKITSPTTEDTATYFCVKPNNLWGPGTLVTVSS
VL: AQVLTQTPSPVSAAVGGTVTINCQSSQSVYNNNALSWYQQKPGQPPKLLIYSASKVATGVPSRFSGSGSGAQFTLTISDLECDDAATYYCQGEFSCSSADCFAFGGGTEVVVKG
notes: Recombinant rabbit monoclonal antibody made in HEK-293-6E cells from pTT5 plasmids; also called ZJM1b-9中的H2/L1; ZJM-1-9H2/L1
binding result [1]: no binding (tested: 1:100稀释) | binding result [2]: binds

Reference: patent CN104610448A (WOMEN S HOSPITAL SCHOOL OF MEDICINE ZHEJIANG UNIVERSITY, dated 2015)
